{"source": "patent US20220119490A1", "about": "(Genentech, published 2022)", "binders": {"B1": {"name": "LRRC4B extracellular domain (receptor, human, UniProt Q9NT99 36-576, looked up)", "chain": "AGGGGVAVTSAAGGGSPPATSCPVACSCSNQASRVICTRRDLAEVPASIPVNTRYLNLQENGIQVIRTDTFKHLRHLEILQLSKNLVRKIEVGAFNGLPSLNTLELFDNRLTTVPTQAFEYLSKLRELWLRNNPIESIPSYAFNRVPSLRRLDLGELKRLEYISEAAFEGLVNLRYLNLGMCNLKDIPNLTALVRLEELELSGNRLDLIRPGSFQGLTSLRKLWLMHAQVATIERNAFDDLKSLEELNLSHNNLMSLPHDLFTPLHRLERVHLNHNPWHCNCDVLWLSWWLKETVPSNTTCCARCHAPAGLKGRYIGELDQSHFTCYAPVIVEPPTDLNVTEGMAAELKCRTGTSMTSVNWLTPNGTLMTHGSYRVRISVLHDGTLNFTNVTVQDTGQYTCMVTNSAGNTTASATLNVSAVDPVAAGGTGSGGGGPGGSGGVGGGSGGYTYFTTVTVETLETQPGEEALQPRGTEKEPPGPTTDGVWGGGRPGDAAGPASSSTTAPAPRSSRPTEKAFTVPITDVTENALKDLDDVMKTTK", "notes": "extracellular domain; ECD-Fc prey; also called NGL-3; netrin-G ligand-3"}}, "key": {"[1]": {"molecular_target": "T1, PTPRD R232C R233C variant extracellular domain (human, UniProt P23468 21-1265)", "T1 construct": "extracellular domain; also called R232C/R233C double mutant; IG2 mutant", "T1 sequence (looked up)": "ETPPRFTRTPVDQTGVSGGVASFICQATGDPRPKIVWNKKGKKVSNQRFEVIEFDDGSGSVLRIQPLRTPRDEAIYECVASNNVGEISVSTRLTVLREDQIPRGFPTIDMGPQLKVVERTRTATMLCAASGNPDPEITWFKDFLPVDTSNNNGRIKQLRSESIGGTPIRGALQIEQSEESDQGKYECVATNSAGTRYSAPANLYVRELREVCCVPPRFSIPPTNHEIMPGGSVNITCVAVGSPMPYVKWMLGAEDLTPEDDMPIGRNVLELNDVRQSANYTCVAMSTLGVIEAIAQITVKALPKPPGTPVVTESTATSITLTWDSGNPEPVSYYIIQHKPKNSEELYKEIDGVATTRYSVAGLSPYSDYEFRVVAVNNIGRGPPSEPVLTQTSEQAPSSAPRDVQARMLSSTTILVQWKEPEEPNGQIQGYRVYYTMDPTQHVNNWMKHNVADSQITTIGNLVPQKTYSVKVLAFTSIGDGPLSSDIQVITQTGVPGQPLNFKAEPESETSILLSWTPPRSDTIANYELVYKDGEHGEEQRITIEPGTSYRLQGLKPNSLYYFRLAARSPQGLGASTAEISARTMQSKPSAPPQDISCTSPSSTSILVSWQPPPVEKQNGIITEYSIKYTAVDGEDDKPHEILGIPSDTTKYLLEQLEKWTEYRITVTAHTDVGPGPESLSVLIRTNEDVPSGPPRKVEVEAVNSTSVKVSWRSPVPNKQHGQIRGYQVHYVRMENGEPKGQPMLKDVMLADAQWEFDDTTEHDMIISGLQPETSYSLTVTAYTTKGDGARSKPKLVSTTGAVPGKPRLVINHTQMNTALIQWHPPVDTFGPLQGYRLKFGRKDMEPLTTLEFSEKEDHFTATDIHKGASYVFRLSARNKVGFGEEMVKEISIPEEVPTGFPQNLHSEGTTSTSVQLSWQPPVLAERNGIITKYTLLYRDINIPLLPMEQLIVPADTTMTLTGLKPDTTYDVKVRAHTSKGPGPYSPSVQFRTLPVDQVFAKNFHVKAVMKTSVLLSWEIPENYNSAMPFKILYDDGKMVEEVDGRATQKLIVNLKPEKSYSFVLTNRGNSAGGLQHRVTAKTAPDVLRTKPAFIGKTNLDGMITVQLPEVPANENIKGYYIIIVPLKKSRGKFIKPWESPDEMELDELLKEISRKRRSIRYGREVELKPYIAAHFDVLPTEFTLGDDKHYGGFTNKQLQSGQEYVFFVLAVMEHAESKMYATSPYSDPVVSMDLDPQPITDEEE", "assay": "extracellular interaction screen: pentameric PTPRD variant ECD on ECD-Fc prey (FIG. 5L)"}, "[2]": {"molecular_target": "T2, PTPRD R561Q variant extracellular domain (human, UniProt P23468 21-1265)", "T2 construct": "extracellular domain; also called FN3 mutant", "T2 sequence (looked up)": "T1 sequence (looked up) with C212R, C213R, R541Q", "assay": "extracellular interaction screen: pentameric PTPRD variant ECD on ECD-Fc prey (FIG. 5L)"}}, "note": "Positions count from the first letter of the chain named."}
{"binder": "B1", "values": [{"measurement": "binding result", "setting": "[1]", "value": "no binding"}, {"measurement": "binding result", "setting": "[2]", "value": "no binding"}]}
